{"source": "the supplement of paper PMC10724198", "note": "± gives the standard deviation of the averaged measurements.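 Further: PSI is a weighted mean of sequencing reads over stability bins, variants kept only with over 10 reads, mCherry proximal and sfGFP distal, peptide attached via GGGS linker.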", "data": [{"test_system": "Saccharomyces cerevisiae", "test": "protein stability index of tFT-peptide fusion (C-terminal peptide) (PSI (0-1 scale)); higher = more stable (slower turnover)", "conditions": "genetic background: wild type; temperature: 37 C", "procedure": "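MPS profiling in S. cerevisiae of the tFT-X12 degron library: putative degron peptides plus stable controls, 12 aa, fused to the C-terminus of a sfGFP-mCherry timer. Cells are FACS-sorted into 8 mCherry/sfGFP bins and deep-sequenced. PSI runs from 0 (unstable) to 1 (stable). Backgrounds are wild type, das1Δ and doa10Δ at 30 °C, and wild type, das1Δ, cdc34-1 and cdc53-1 at 37 °C; 2-3 technical replicates each.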", "values": [{"sequence": "GTVRSLLKWRCS", "protein stability index": "0.384 ± 0.011"}, {"sequence": "GVCLGFICVGFC", "protein stability index": "0.522 ± 0.0075"}, {"sequence": "GVCWCVLFVVGC", "protein stability index": "0.428 ± 0.052"}, {"sequence": "GVYFIGISRCVC", "protein stability index": "0.36 ± 0.015"}, {"sequence": "GVYRLCLLLLVY", "protein stability index": "0.237 ± 0.015"}, {"sequence": "GWRGVVLVFVLV", "protein stability index": "0.438 ± 0.015"}, {"sequence": "GWSRRFFCLFIV", "protein stability index": "0.0793 ± 0.006"}, {"sequence": "GWWCGIGVAVSV", "protein stability index": "0.477 ± 0.01"}, {"sequence": "HHACLLPVRKAG", "protein stability index": "0.404 ± 0.024"}, {"sequence": "HLAQYSSSLHLM", "protein stability index": "0.6165 ± 0.0024"}, {"sequence": "HPPPPPPPPSLS", "protein stability index": "0.7037 ± 0.002"}, {"sequence": "IACVLSIFLNAA", "protein stability index": "0.436 ± 0.0094"}, {"sequence": "ICQFFFFALLSF", "protein stability index": "0.19 ± 0.0063"}, {"sequence": "IDSEVHLWKRSA", "protein stability index": "0.405 ± 0.011"}, {"sequence": "IFAVLVSGSFFF", "protein stability index": "0.509 ± 0.017"}, {"sequence": "IFLGFGPLFGRL", "protein stability index": "0.824 ± 0.03"}, {"sequence": "IGSFFLFFLLIF", "protein stability index": "0.3726 ± 0.0017"}, {"sequence": "IIIGTLLYVNVR", "protein stability index": "0.39 ± 0.041"}, {"sequence": "IKRLKEVARHVS", "protein stability index": "0.4381 ± 0.0021"}, {"sequence": "ILGQSVIMRIKM", "protein stability index": "0.686 ± 0.014"}, {"sequence": "ILLICLQFFNLF", "protein stability index": "0.505 ± 0.0075"}, {"sequence": "ILRIYIPRWRRQ", "protein stability index": "0.332 ± 0.0091"}, {"sequence": "INKKKKMIITKI", "protein stability index": "0.479 ± 0.015"}, {"sequence": "IPRSCRIRLAVL", "protein stability index": "0.359 ± 0.021"}, {"sequence": "IQICLNRLRLFH", "protein stability index": "0.573 ± 0.043"}, {"sequence": "IRACGCSFLWVC", "protein stability index": "0.118 ± 0.015"}, {"sequence": "IRLCAASFMVVF", "protein stability index": "0.524 ± 0.014"}, {"sequence": "IRSRGLLIRWLS", "protein stability index": "0.148 ± 0.015"}, {"sequence": "IVCAVTSIFLFF", "protein stability index": "0.422 ± 0.0045"}, {"sequence": "IVRSLFGYLCVV", "protein stability index": "0.569 ± 0.0066"}, {"sequence": "KCVVMFFLRSVS", "protein stability index": "0.598 ± 0.011"}, {"sequence": "KFFRSWVLTSPA", "protein stability index": "0.609 ± 0.021"}, {"sequence": "KFRGMTLRNKVC", "protein stability index": "0.224 ± 0.069"}, {"sequence": "KHTGTGNAPNCD", "protein stability index": "0.712 ± 0.012"}, {"sequence": "KIKKLKNRRKLV", "protein stability index": "0.196 ± 0.032"}, {"sequence": "KKKKQKKNNNKR", "protein stability index": "0.698 ± 0.079"}, {"sequence": "KLKDLTRIKIFR", "protein stability index": "0.701 ± 0.011"}, {"sequence": "KRARVIWKLVVV", "protein stability index": "0.4876 ± 0.0039"}, {"sequence": "KRMVEKNKKKIN", "protein stability index": "0.368 ± 0.012"}, {"sequence": "KSSIGVWTLLIR", "protein stability index": "0.423 ± 0.022"}, {"sequence": "KSTLVRILVFHV", "protein stability index": "0.522 ± 0.0089"}, {"sequence": "KYKANLGNLKVH", "protein stability index": "0.101 ± 0.0031"}, {"sequence": "LAPPFPVVLTPA", "protein stability index": "0.3816 ± 0.0013"}, {"sequence": "LCGGEWVVWVKG", "protein stability index": "0.477 ± 0.029"}, {"sequence": "LCIFFWFSSFFL", "protein stability index": "0.505 ± 0.012"}, {"sequence": "LCLICLFLLKVL", "protein stability index": "0.299 ± 0.017"}, {"sequence": "LCRCPVGVFVLL", "protein stability index": "0.469 ± 0.017"}, {"sequence": "LCVVFCIRTYRV", "protein stability index": "0.471 ± 0.027"}, {"sequence": "LCYVLLWLLCRS", "protein stability index": "0.501 ± 0.033"}, {"sequence": "LDLPFESGIACF", "protein stability index": "0.397 ± 0.015"}, {"sequence": "LEGLLIRVYITF", "protein stability index": "0.305 ± 0.0093"}, {"sequence": "LFFFLFSLLIFF", "protein stability index": "0.352 ± 0.011"}, {"sequence": "LFFFRLFVFWVF", "protein stability index": "0.251 ± 0.0066"}, {"sequence": "LFFFSFSFLFFL", "protein stability index": "0.3202 ± 0.0027"}, {"sequence": "LFFFVFFVLFSV", "protein stability index": "0.303 ± 0.016"}, {"sequence": "LFFRLLCAFLFL", "protein stability index": "0.5353 ± 0.0031"}, {"sequence": "LFFVFCLFFIYF", "protein stability index": "0.264 ± 0.011"}, {"sequence": "LFHSIPRLLLLK", "protein stability index": "0.218 ± 0.041"}, {"sequence": "LFKFCLGIPLFL", "protein stability index": "0.559 ± 0.014"}, {"sequence": "LFLSAFFYLLVW", "protein stability index": "0.3077 ± 0.002"}, {"sequence": "LFLVLFCVVGFV", "protein stability index": "0.337 ± 0.011"}, {"sequence": "LFSFFVFFFLLD", "protein stability index": "0.476 ± 0.02"}, {"sequence": "LFTRWSILFKLF", "protein stability index": "0.136 ± 0.015"}, {"sequence": "LGDPPCRMIVVR", "protein stability index": "0.558 ± 0.0075"}, {"sequence": "LGGVEDRWRTAT", "protein stability index": "0.534 ± 0.008"}, {"sequence": "LGRLDYKRMKRA", "protein stability index": "0.618 ± 0.046"}, {"sequence": "LGSYIFVVVIYF", "protein stability index": "0.253 ± 0.0056"}, {"sequence": "LGSYVWVFVYFW", "protein stability index": "0.267 ± 0.025"}, {"sequence": "LHIHGAGIVCAG", "protein stability index": "0.5491 ± 0.0022"}, {"sequence": "LICRFLFFVCVG", "protein stability index": "0.441 ± 0.03"}, {"sequence": "LILLTFTLRVPV", "protein stability index": "0.362 ± 0.018"}, {"sequence": "LLCLCSLPVFAS", "protein stability index": "0.368 ± 0.0076"}, {"sequence": "LLFLLSPFNFAV", "protein stability index": "0.524 ± 0.03"}, {"sequence": "LLFTFSLSFFFR", "protein stability index": "0.45 ± 0.022"}, {"sequence": "LLLHFMFSIFWF", "protein stability index": "0.42 ± 0.011"}, {"sequence": "LLMWVLFDCHYS", "protein stability index": "0.535 ± 0.013"}, {"sequence": "LLPTSVFLPSLF", "protein stability index": "0.578 ± 0.018"}, {"sequence": "LLRIFLPLLYLL", "protein stability index": "0.2 ± 0.00044"}]}]}
